Patent publication US20240101665A1

How the values were obtained:
[1] = target: human G Protein coupled receptor 48 (GPR48), endogenous, in colorectal cancer cells, tissues and organoids (human) (UniProt Q9BXB1); experiment: cell-based or functional assay
[2] = target: human G Protein coupled receptor 48 (GPR48), endogenous, in colorectal cancer cells, tissues and organoids (human) (UniProt Q9BXB1); experiment: flow cytometry on P6C cells, dilution series of antibody, FITC goat anti-mouse IgG
[3] = target: human G Protein coupled receptor 48 (GPR48), endogenous, in colorectal cancer cells, tissues and organoids (human) (UniProt Q9BXB1); experiment: western blot on P6C lysate, dilution series of antibody

inhibition rate, colony formation of HCT116 cells, 10 µg/ml antibody [1]: 15.4%
inhibition rate, colony formation of P6C cells, 10 µg/ml antibody [1]: 9.7%
inhibition rate, colony formation of SW480 cells, 10 µg/ml antibody [1]: 26.1%
dilution factor (dilution factor) [2]: 100
titer (reciprocal dilution (1:x) of 1 mg/ml) [3]: 300
Substance: Commercial GPR48 monoclonal antibody, R&D Systems, clone #852229, product number MAB7750
